The target in this test is T1, human AXL (full length) (human, UniProt P30530 26-894).
T1 construct: also called TH1021-AXL; TH1021-hAXL
Description: FMAT screening assay, HEK-293F cells transiently expressing human AXL.

Substitutions are numbered along the chain they refer to.

B1: IgG1-AXL-148 (antibody, V domains shown)
VH: EVQLLESGGGLVQPGGSLRLSCAASGFTFSSYAMTWVRQAPGKGLEWVSAISISGGSTFYADSVKGRFTISRDNSKNTLYLQMNSLRAEDTAVYYCRGYSGYVYDAFDFWGQGTMVTVSS
VL: DIQMTQSPSSLSASVGDRVTITCRASQGISNWLAWYQQKPEKAPKSLIYAASSLQSGVPSRFSGSGSGTDFTLTISSLQPEDFATYYCQQYNSYPLTFGGGTKVEIK
In the case of B1, a half-maximal effect (EC50) was put at 0.0036 µg/mL and the “Maximal binding (Arbitrary units)” value came out at 3500 arbitrary units.

B2: IgG1-AXL-726 (antibody, V domains shown)
VH: QVQLQQWGAGLLKPSETLSLTCAIDGGSFSGYYWSWIRQPPGKGLEWIGEISHSGRTNYNPSLKSRVTISIDTSKNQFSLKLSSVAAADTAVYYCARFITMIRGAIITHFDYWGQGALVTVSS
VL: B1 VL with N31S, N92H, L96Y, G100Q, V104L
As to B2, a half-maximal response (EC50) required 0.0471 µg/mL and the “Maximal binding (Arbitrary units)” value is 3150 arbitrary units.

Broadly, the EC50 is the midpoint of the concentration-response curve.

(Values after patent publication US20180326084A1 (Genmab, published 2018).)
